# Earlier results in publication PMC5487681, “Identification of Antifungal H^+-ATPase Inhibitors with Effect on Plasma Membrane Potential” (Antimicrobial Agents and Chemotherapy, 2017).
# B1: lactoferrin: immunoprotein that inhibits Pma1 (protein, UniProt P02788 20-710, looked up)
# Lactotransferrin: GRRRSVQWCAVSQPEATKCFQWQRNMRKVRGPPVSCIKRDSPIQCIQAIAENRADAVTLDGGFIYEAGLAPYKLRPVAAEVYGTERQPRTHYYAVAVVKKGGSFQLNELQGLKSCHTGLRRTAGWNVPIGTLRPFLNWTGPPEPIEAAVARFFSASCVPGADKGQFPNLCRLCAGTGENKCAFSSQEPYFSYSGAFKCLRDGAGDVAFIRESTVFEDLSDEAERDEYELLCPDNTRKPVDKFKDCHLARVPSHAVVARSVNGKEDAIWNLLRQAQEKFGKDKSPKFQLFGSPSGQKDLLFKDSAIGFSRVPPRIDSGLYLGSGYFTAIQNLRKSEEEVAARRARVVWCAVGEQELRKCNQWSGLSEGSVTCSSASTTEDCIALVLKGEADAMSLDGGYVYTAGKCGLVPVLAENYKSQQSSDPDPNCVDRPVEGYLAVAVVRRSDTSLTWNSVKGKKSCHTAVDRTAGWNIPMGLLFNQTGSCKFDEYFSQSCAPGSDPRSNLCALCIGDEQGENKCVPNSNERYYGYTGAFRCLAENAGDVAFVKDVTVLQNTDGNNNEAWAKDLKLADFALLCLDGKRKPVTEARSCHLAMAPNHAVVSRMDKVERLKQVLLHQQAKFGRNGSDCPDKFCLFQSETKNLLFNDNTECLARLHGKTTYEKYLGPQYVAGITNLKKCSTSPLLEACEFLRK
# Tested on: C. albicans cells
# Parameters: method as in PMID 27139463
molecule,measurement,value
B1,"Increase in iATP levels, C. albicans",> 600%
